Entries after “also recorded” stand apart in the source; their conditions may differ.
Columns and labels:
[1] = Glycochip binding, glycan 181
Method: (§1) In order to identify the carbohydrate binding activity of Agrocybe aegerita lectin AAL-2, the Agrocybe aegerita lectin AAL-2 is used to detect 465 kinds of carbohydrate by the glycochip technology.
(§2) Firstly, the purified Agrocybe aegerita lectin AAL-2 (isolated in example 1) is labeled with the biotin and 200 μg/mL AAL-2 incubates the glycochip, then the fluorescein labeled streptavidin combines with the biotin labeled AAL-2. Results are shown in Table 4 (different carbohydrate affinity of AAL-2 arranged from high to low (top of 23 carbohydrates)).

[2] = Glycochip binding, glycan 309; settings: glycan number 309; 200 μg/mL AAL-2
Method: as §1, §2

[3] = Glycochip binding, glycan 180
Method: as §1, §2

[4] = Glycochip binding, glycan 182
Method: as §1, §2

[5] = Glycochip binding, glycan 171
Method: as §1, §2

[6] = Glycochip binding, glycan 336
Method: as §1, §2

[7] = Glycochip binding, glycan 407
Method: as §1, §2

[8] = Glycochip binding, glycan 88
Method: as §1, §2

[9] = Glycochip binding, glycan 17; settings: glycan number 17; 200 μg/mL AAL-2
Method: as §1, §2

[10] = system: H22; assay: AAL-2 induced apoptosis of H22 cells, Annexin V/PI flow cytometry; format: cell-based, mouse; settings: 0.6, 1.2, 2.4 μmol/L; 24 hours and 36 hours; FIG. 6A
Method: (§3) The experiment detects the killing activity of Agrocybe aegerita lectin AAL-2 (isolated protein in example 1) to the two tumor cell lines (H22, Huh7). H22 and Huh7 cell lines (purchased from ATCC) are cultured in RPMI1640 medium and DMEM medium (contains 10% fetal bovine serum, […] and 100 U/mL penicillin). Different concentrations of Agrocybe aegerita lectin AAL-2 prepared in the example 1 are added into tumor cells (final concentration is 0.6 μmol/L, 1.2 μmol/L, 2.4 μmol/L) and cultured for 24 hours and 36 hours, respectively. The treated cells are digested into single cell, stained with the Annexin V/PI dye and detected by the flow cytometry.

[11] = Glycochip binding, glycan 308
Method: as §1, §2

[12] = Glycochip binding, glycan 94
Method: as §1, §2

[13] = Glycochip binding, glycan 179
Method: as §1, §2

[14] = Glycochip binding, glycan 172
Method: as §1, §2

[15] = Glycochip binding, glycan 340
Method: as §1, §2

[16] = Carbohydrate binding specificity by glycochip technology; settings: biotin labeled AAL-2, 200 μg/mL
Method: as §1, §2

[17] = Glycochip binding, glycan 178
Method: as §1, §2

[18] = Glycochip binding, glycan 177; settings: glycan number 177; 200 μg/mL AAL-2
Method: as §1, §2

[19] = Glycochip binding, glycan 338
Method: as §1, §2

[20] = system: mouse hepatoma cell line H22; assay: Tumor growth of H22 tumor bearing mice, in situ tumour injection; format: in vivo, BALB/c mice; settings: 5 mg/kg in situ tumour injection every other day, 7 injections
Method: In this experiment, the BALB/c mice (6-8weeks old, 20 g) are used for the antitumour activity assay. 0.1 ml mouse hepatoma cell line H22 (1×10^7 cells/mL) is subcutaneously inoculated into the oxter area of the BALB/c mice. 7 days after inoculation, inject the Agrocybe aegerita lectin AAL-2 by in situ tumour (protein isolated in example 1) (5 mg/kg, 0.1 ml/mouse). The control group is treated with 0.9% NaCl. Then take the injection every other day, a total of 7 injections, and record the size of the tumor tissue in mice. Tumor size=tumor tissue length L×width W^2/2.

[21] = Glycochip binding, glycan 176; settings: glycan number 176; 200 μg/mL AAL-2
Method: as §1, §2

[22] = Glycochip binding, glycan 337
Method: as §1, §2

[23] = Glycochip binding, glycan 190; settings: glycan number 190; 200 μg/mL AAL-2
Method: as §1, §2

[24] = Glycochip binding, glycan 339
Method: as §1, §2

[25] = Glycochip binding, glycan 341
Method: as §1, §2

[26] = system: Huh7; assay: AAL-2 induced apoptosis of Huh7 cells, Annexin V/PI flow cytometry; format: cell-based; settings: 0.6, 1.2, 2.4 μmol/L; 24 hours and 36 hours; FIG. 6B
Method: as §3

[27] = Glycochip binding, glycan 175
Method: as §1, §2

[28] = rank of affinity, carbohydrate spectrum of AAL-2

B1: AAL-2: new lectin isolated from Agrocybe aegerita total protein by affinity chromatography; amino acid sequence SEQ ID NO: 2; 43 kDa monomer (protein, listed as Agrocybe aegerita)
chain: MTSNVITQDLPIPVASRGFADIVGFGLDGVVIGRNAVNLQPFLAVKNFAQNAGGWLTTKHVRLIADTTGTGKGDIVGFGNAGVYVSVNNGKNTFADPPKMVIANFGYDAGGWRVEKHLRYLADIRKIGRADIIGFGEKGVLVSRNNGGLNFGPATLVLKDFGYDAGGWRLDRHLRFLADVTGNGHLDIVGFGDKHVFISRNNGDGTFAPAKSVIDNFCIDAGGWKIGDHPRFVADLTGDGTADIIGCGKAGCWVALNNGGGVFGQVKLVINDFGTDKGWQAAKHPRFIADLTGNGRGDVVGFGNAGVYVALNNGDGTFQSAKLVLKDFGVQQGWTVSKHRRFVVDLTGDGCADIIGFGEKETLVSYNDGKGNFGPVKALTNDFSFSGGKWAPETTVCWMANLDSSRH
- average ([1]; glycan number 181, 200 μg/mL AAL-2): 18737
- order (glycosyl structure affinity of top 18) [1, 28]: 8
- average [2]: 6078
- average ([3]; glycan number 180, 200 μg/mL AAL-2): 17289
- order (glycosyl structure affinity of top 18) [3, 28]: 9
- average ([4]; glycan number 182, 200 μg/mL AAL-2): 8464
- order (glycosyl structure affinity of top 18) [4, 28]: 16
- average ([5]; glycan number 171, 200 μg/mL AAL-2): 24487
- order (glycosyl structure affinity of top 18) [5, 28]: 2
- average ([6]; glycan number 336, 200 μg/mL AAL-2): 30519
- order (glycosyl structure affinity of top 18) [6, 28]: 1
- average ([7]; glycan number 407, 200 μg/mL AAL-2): 6992
- order (glycosyl structure affinity of top 18) [7, 28]: 18
- average ([8]; glycan number 88, 200 μg/mL AAL-2): 8504
- order (glycosyl structure affinity of top 18) [8, 28]: 15
- average [9]: 5331
- apoptosis of H22 cells [10]: apoptosis inducing activity depends on the concentration; also recorded: significantly cause two hepatoma cell lines apoptosis
- average ([11]; glycan number 308, 200 μg/mL AAL-2): 11572
- order (glycosyl structure affinity of top 18) [11, 28]: 12
- average ([12]; glycan number 94, 200 μg/mL AAL-2): 11198
- order (glycosyl structure affinity of top 18) [12, 28]: 13
- average ([13]; glycan number 179, 200 μg/mL AAL-2): 19530
- order (glycosyl structure affinity of top 18) [13, 28]: 5
- average ([14]; glycan number 172, 200 μg/mL AAL-2): 19311
- order (glycosyl structure affinity of top 18) [14, 28]: 6
- average ([15]; glycan number 340, 200 μg/mL AAL-2): 8758
- order (glycosyl structure affinity of top 18) [15, 28]: 14
- carbohydrate binding specificity [16]: specifically preferentially bind to carbohydrates with N-Acetylglucosamine as the terminal
- average ([17]; glycan number 178, 200 μg/mL AAL-2): 7339
- order (glycosyl structure affinity of top 18) [17, 28]: 17
- average [18]: 5782
- average ([19]; glycan number 338, 200 μg/mL AAL-2): 16141
- order (glycosyl structure affinity of top 18) [19, 28]: 10
- tumor growth (tumor size) ([20]; FIG. 7A): significantly inhibited; also recorded: inhibit the tumor growth
- survival time of tumor bearing mice ([20]; FIG. 7B): prolonged obviously; also recorded: prolong the survival time
- average [21]: 5896
- average ([22]; glycan number 337, 200 μg/mL AAL-2): 19030
- order (glycosyl structure affinity of top 18) [22, 28]: 7
- average [23]: 5571
- average ([24]; glycan number 339, 200 μg/mL AAL-2): 20868
- order (glycosyl structure affinity of top 18) [24, 28]: 4
- average ([25]; glycan number 341, 200 μg/mL AAL-2): 11672
- order (glycosyl structure affinity of top 18) [25, 28]: 11
- apoptosis of Huh7 cells [26]: apoptosis inducing activity depends on the concentration; also recorded: significantly cause two hepatoma cell lines apoptosis
- average ([27]; glycan number 175, 200 μg/mL AAL-2): 21115
- order (glycosyl structure affinity of top 18) [27, 28]: 3
